Series [1] is described as follows: Toxicity studies: liver histology, body weight and survival. The format is in vivo, CD-1 mice. The conditions noted are these: dose of 300 μg, observed for 4 months.
The nature of series [2]: Biodistribution of radioiodinated (125I) proteins, modified avidin-type molecules and their complexes after i.v. injection. The protocol: (ii) Animals. Age-matched CD-1 male mice (6-12 weeks old) were used in the experiments.
(iii) Biodistribution experiments. Groups of age-(6-12 weeks) and weight-matched male CD-1 mice were given intravenous (i.v.) injections into the lateral tail vein of radioiodinated ^125I-TNP- or ^125I-lactosylated-St (most biodistribution experiments were done in the range of 1-10 μg protein, 1 mCi of ^125I) into the lateral tail vein. At the time intervals indicated, blood samples were withdrawn from the tail, the mice were killed and their organs were dissected out, washed in PBS, blotted dry, weighed and counted for radioactivity. […] In subsequent experiments, CD-1 male mice were used and the results are presented as %/g or %/organ for single a single mouse or %/g ±SD or %/organ ±SD for pairs of mice unless otherwise stated.
(ii) Radioiodination. Proteins (0.2 mg/0.2ml) in 0.2M phosphate buffer pH 8.0 were reacted for 2 min with Na^125I (0.5 mCi for biodistribution experiment and 2.5mCi for external monitoring) in the presence of Chloramine-T (2mg/ml, 10 or 100 μl) in PBS for 2 min. The reaction, which facilitates attachment of the radioactive iodine to tyrosines, was terminated by the addition of sodium metabisulfite (2mg/ml, 10 or 100 μl) in PBS for 2 min followed by the addition of potassium iodide and carrier BSA (1 mg of each/0.1 ml PBS). The radioiodinated proteins ^125I-TNP-proteins were then chromatographed on Sephadex G-25 in PBS. TNP modification can take place before or after radioiodination. Avidin and TNP-Av, being low in tyrosine content (molar ratio of 4 tyrosine/avidin as compared to 24 tyrosine/streptavidin), were radiolabeled by ^125I-biotinyl-tyrosine as described below in Example 6.

The nature of series [3]: Pt content in organs by flame atomic absorption spectrometry after CDDP complexed to BT1-CMdex-TNP-St or free CDDP. The format is in vivo, mice. The following applies: 2 h following injection of 300 μg free CDDP. The protocol: Pharmacokinetic studies confirmed the assumption of sustained release and prolonged maintenance of the complexed drug, as compared to the rapid elimination and inactivation of the free drug (Schechter et al., 1989a). Complexing CDDP to BT1-CMdex: BT1-CMdex (T-40) (0.15mM) was reacted with CDDP in DDW at a molar ratio of 1:60 for 24 h at 37° C. Following dialysis, the resulting BT1-CMdex-Pt contained 23-27 CDDP/CMdex. The complex BT1-CMdex-CDDP was reacted with TNP-St (at a ratio of 4:1) for targeting to the liver. […] To show the actual targeting of CDDP to the liver, CDDP was quantitatively determined in organs obtained at set time intervals following injection of 185 μg CDDP complexed to BT1-CMdex-TNP-St. Blood and organs were blended in an Ika Werk Ultra-Turrax blender (Jankel&Kunkel KG) in 5×Vol/tissue weight of 0.1N NaOH for 30 seconds. After centrifugation, the supernatants were filtered through Minisart 5 μm filter and the Pt content in the samples was determined by flame atomic absorption spectrometry (AA) at 265.9 nm in air-acetylene flame (in a Perkin Elmer 5100 PC spectrophotometer). Standards were prepared in a solution with matrix identical to that of the samples (i.e., normal tissues), to account for possible matrix interference. Results are expressed as %/g, i/organ or μg/organ in individual mice.

For series [4] the following is noted: mouse, in vivo; cited from earlier work.
The nature of series [5]: [3H] radioactivity in tissue extracts after BT1-CMdex-FUR ([3H]-uridine) alone or complexed to TNP-St. The format is in vivo, mice. The conditions noted are these: 1 and 4 h. The procedure:
The actual targeting of FUR to the liver was carried out by a BT1-CMdex (T-40)-FUR product in which FUR was trace-labeled with [^3H] uridine. Mice were injected with BT1-CMdex-FUR-([^3H]-uridine) alone or complexed to TNP-St and at set time intervals blood was withdrawn, organs were dissected out and weighed. Tissue extracts were prepared by blending blood and organs in an Ika Werk Ultra-Turrax blender in 5× vol (ml)/tissue weight (g) of 0.1N NaOH for 30 sec. After centrifugation, 50 μl samples were counted for [^3H] radioactivity. Results are expressed as %/g tissue or %/organ. As shown in FIGS. 11A and 11B, levels of untargeted BT1-CMdex-FUR ([^3H]-uridine) were low. […] Radioactivity levels in other organs were in the range of 5%/g tissue or less than 1%/organ (FIG. 11B). It can be calculated that upon injection of 200μg TNP-St as a vehicle for BT1-CMdex-FUR, 25 μg of the drug can be accumulated per gram liver.

Bounds are passed on as bounds.

For the molecule “TNP-Av: avidin modified with 2,4,6-trinitrophenyl (TNP) groups”, the “effect on body weight or survival” value in series [1] is “did not seem to affect”. In series [2] (mouse, in vivo), the “accumulation in the liver” value was 30-40 %/g and the “accumulation in the spleen” value was 10-15 %/g.
With “DTPA-Gd substituted St: Gd-DTPA derivative of streptavidin”, in series [2] (liver, 24 h, FIG. 16), the liver accumulation entry is reported as “did not accumulate in the liver”.
As to “Lac-St: lactosylated streptavidin, molar substitution ratio 5:1”, the “non-hepatic values, fold lower than St or TNP-St” value in series [2] (mouse, in vivo) was 10-20 fold.
As for “^125I-BT-St: radioiodinated biotinyl-tyrosine complexed to unmodified streptavidin”, in series [2] (mouse, in vivo), the “accumulation in whole kidney, % of injected dose of radioactivity/organ” value was found to be 10%.
On to `N.N.[Cl][Pt][Cl]` [CDDP, cis-dichlorodiamine platinum (cisplatin)], for which the “Pt in liver or other organs” value in series [3] is on record as “essentially no Pt could be found”.
“^125I-BT-TNP-St: radioiodinated biotinyl-tyrosine complexed to TNP-streptavidin”: in series [2] (mouse, in vivo), the “accumulation in whole liver, % of injected dose of radioactivity/organ” value was 66-68%.
For the molecule streptavidin, in series [4], the “% of the total injected dose accumulated in each kidney” value is on record as 15% and the “levels in other organs” value was 0.3-4 %/g. In addition, in series [2] (mouse, in vivo), the “accumulation in the kidney” value was 70-80%; the blood levels is recorded as 22-33 %/g; the “levels in other tissues, including the liver” value is reported as under 10 %/g.
Turning to `O=c1[nH]c(=O)n([C@@H]2O[C@H](CO)[C@@H](O)[C@H]2O)cc1F` [FUR, 5-fluorouridine], in series [5], the “tissue levels of free drug” value is reported as “around 1 %/g tissue”.
As to “TNP-NL-Av: TNP-modified NeutraLite Avidin, a deglycosylated form of avidin”, the “accumulation in the spleen” value in series [2] (mouse, in vivo) is “up to 20 %/g”.

Values taken from patent US6638508B2, “Modified avidin-type molecules as targeting agents for the liver and cells of the reticuloendothelial system” (Yeda Research and Development Co., Ltd., priority 1995, dated 2003).
